# Measurements reported in PMC10313831.
# Target: RPA-MeGFP (Saccharomyces cerevisiae) (UniProt P22336+P26754+P26755)
# Assay: single-molecule ssDNA curtains (TIRFM)
# Conditions: 10 pM then 100 pM RPA; EMSA: 20 mM Tris-HCl pH 7.5, 150 (or 15) mM KCl, 1 mM DTT, 100 ug/mL BSA, 5 nM DNA, 30 C 10 min; curtains: 40 mM Tris-HCl pH 7.5, 150 or 15 mM NaCl, 2 mM …
# Chain of RPA-MeGFP (Saccharomyces cerevisiae) (P22336 whole entry, chain 1 of 3): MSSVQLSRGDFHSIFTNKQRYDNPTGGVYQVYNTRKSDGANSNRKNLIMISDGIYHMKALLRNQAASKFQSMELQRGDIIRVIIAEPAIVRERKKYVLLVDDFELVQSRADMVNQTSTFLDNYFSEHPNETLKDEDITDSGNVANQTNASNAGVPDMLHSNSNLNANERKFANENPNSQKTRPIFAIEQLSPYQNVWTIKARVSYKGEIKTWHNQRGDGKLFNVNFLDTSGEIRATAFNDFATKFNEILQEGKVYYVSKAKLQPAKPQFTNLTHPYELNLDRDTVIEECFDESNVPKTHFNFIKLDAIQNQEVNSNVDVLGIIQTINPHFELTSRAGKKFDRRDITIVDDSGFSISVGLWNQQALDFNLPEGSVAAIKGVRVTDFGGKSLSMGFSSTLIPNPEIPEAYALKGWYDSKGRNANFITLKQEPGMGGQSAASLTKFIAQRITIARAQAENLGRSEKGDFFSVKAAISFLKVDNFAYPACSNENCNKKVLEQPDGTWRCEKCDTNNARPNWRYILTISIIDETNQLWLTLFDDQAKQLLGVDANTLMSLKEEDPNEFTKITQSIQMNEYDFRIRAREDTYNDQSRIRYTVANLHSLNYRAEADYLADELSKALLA
# Chain of RPA-MeGFP (Saccharomyces cerevisiae) (P26754 whole entry, chain 2 of 3): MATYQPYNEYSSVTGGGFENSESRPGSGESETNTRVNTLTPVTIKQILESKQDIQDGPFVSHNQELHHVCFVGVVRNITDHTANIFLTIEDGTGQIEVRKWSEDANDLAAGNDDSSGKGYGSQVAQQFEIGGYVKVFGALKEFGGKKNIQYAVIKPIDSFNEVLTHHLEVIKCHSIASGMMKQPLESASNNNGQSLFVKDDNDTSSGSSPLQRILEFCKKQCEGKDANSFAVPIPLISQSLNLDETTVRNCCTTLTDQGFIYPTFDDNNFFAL
# Chain of RPA-MeGFP (Saccharomyces cerevisiae) (P26755 whole entry, chain 3 of 3): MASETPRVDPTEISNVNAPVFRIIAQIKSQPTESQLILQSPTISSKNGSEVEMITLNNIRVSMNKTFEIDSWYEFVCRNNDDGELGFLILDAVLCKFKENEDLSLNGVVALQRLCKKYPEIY
substance,measurement,value
M13 ssDNA,binding signal (% length extension),359
